Columns and labels:
Experiment in all cases: cell-based or functional assay
AMPK (r) = AMPK (r) (rat (r), UniProt Q09137 1-552, limits assumed)
CaMKI (h) = CaMKI (h) (human (h), UniProt Q14012 1-370, limits assumed)
CDKI/cyclinB (h) = CDKI/cyclinB (h) (human (h), UniProt P06493 1-297)
DYRK2 (h) = biological target: T1, DYRK2 (h) (human (h), UniProt Q92630 1-601, limits assumed)
T1 sequence (looked up): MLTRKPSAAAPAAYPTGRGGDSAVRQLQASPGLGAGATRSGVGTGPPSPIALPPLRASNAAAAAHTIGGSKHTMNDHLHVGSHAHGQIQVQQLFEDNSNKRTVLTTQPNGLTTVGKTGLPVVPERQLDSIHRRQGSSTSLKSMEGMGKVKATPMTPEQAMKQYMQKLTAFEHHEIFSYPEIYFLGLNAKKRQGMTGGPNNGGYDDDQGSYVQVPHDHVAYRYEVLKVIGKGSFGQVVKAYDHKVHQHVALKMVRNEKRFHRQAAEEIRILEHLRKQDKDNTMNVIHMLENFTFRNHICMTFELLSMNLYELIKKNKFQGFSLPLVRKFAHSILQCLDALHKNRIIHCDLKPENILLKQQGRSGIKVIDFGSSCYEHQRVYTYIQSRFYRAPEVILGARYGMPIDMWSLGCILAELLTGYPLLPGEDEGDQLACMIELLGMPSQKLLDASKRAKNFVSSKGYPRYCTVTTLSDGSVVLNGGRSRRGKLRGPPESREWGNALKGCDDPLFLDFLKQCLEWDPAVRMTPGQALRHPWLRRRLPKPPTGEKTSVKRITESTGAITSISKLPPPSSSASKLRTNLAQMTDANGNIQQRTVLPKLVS

EphA2 (h) = biological target: T2, EphA2 (h) (human (h), UniProt P29317 591-976, limits assumed)
T2 sequence (looked up): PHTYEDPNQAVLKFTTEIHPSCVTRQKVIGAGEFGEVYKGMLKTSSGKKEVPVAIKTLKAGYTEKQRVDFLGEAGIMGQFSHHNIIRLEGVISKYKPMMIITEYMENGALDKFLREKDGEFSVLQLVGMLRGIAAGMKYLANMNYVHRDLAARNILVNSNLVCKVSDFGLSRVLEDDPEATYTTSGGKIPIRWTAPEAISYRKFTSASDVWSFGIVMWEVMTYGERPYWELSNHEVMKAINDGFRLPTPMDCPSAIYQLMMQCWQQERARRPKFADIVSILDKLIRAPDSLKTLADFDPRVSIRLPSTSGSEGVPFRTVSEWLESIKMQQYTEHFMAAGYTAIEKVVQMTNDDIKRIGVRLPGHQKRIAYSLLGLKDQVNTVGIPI

GSK3β (h) = GSK3β (h) (human (h), UniProt P49841 1-420)
IGF-IR (h) = IGF-IR (h) (human (h), UniProt P08069 959-1367, limits assumed)
JAK3 (h) = JAK3 (h) (human (h), UniProt P52333 781-1124, limits assumed)
KDR (tl) = KDR (tl) (UniProt P35968 790-1356, limits assumed)
Lck (h) = Lck (h) (human (h), UniProt P06239 1-509)
L1MK1 (h) = L1MK1 (h) (human (h), UniProt P53667 285-638, limits assumed)
MEKI (h) = MEKI (h) (human (h), UniProt Q02750 1-393)
Met (h) = Met (h) (human (h), UniProt P08581 974-1390, limits assumed)
MLCK (h) = MLCK (h) (human (h))
Pim-1 (h) = Pim-1 (h) (human (h), UniProt P11309 1-313)
PKA (h) = PKA (h) (human (h), UniProt P17612 1-351)
Ret (h) = biological target: T3, Ret (h) (human (h), UniProt P07949 658-1114, limits assumed)
T3 sequence (looked up): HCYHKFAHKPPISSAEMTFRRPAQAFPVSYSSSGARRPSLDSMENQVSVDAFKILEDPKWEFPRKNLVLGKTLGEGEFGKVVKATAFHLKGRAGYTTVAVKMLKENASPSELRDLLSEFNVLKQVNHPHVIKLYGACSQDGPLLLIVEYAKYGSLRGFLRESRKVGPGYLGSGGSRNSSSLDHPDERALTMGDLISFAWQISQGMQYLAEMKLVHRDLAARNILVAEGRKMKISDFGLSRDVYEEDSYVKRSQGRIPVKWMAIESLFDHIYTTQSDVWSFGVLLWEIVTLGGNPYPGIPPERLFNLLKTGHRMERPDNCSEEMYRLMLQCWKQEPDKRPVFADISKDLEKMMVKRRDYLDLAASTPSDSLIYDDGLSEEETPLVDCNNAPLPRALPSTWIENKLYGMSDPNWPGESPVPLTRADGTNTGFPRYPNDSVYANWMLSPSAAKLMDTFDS

Rsk2 (h) = Rsk2 (h) (human (h), UniProt P51812 1-740)
SAPK2 a (h) = SAPK2 a (h) (human (h), UniProt Q16539 1-360)
Syk (h) = Syk (h) (human (h), UniProt P43405 1-635)
Tie2 (h) = Tie2 (h) (human (h), UniProt Q02763 771-1124, limits assumed)
Tie2 (h), sequence (Q02763 771-1124 limits assumed): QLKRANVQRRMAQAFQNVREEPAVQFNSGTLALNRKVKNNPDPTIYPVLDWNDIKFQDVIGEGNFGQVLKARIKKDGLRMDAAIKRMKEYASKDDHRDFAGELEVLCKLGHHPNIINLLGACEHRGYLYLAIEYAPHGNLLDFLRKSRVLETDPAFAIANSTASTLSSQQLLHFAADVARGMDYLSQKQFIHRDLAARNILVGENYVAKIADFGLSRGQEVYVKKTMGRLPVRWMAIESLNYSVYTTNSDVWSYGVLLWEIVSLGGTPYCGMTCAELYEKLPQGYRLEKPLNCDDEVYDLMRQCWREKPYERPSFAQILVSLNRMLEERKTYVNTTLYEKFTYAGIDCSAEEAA

CDKI/cyclinB (h), sequence (P06493 whole entry): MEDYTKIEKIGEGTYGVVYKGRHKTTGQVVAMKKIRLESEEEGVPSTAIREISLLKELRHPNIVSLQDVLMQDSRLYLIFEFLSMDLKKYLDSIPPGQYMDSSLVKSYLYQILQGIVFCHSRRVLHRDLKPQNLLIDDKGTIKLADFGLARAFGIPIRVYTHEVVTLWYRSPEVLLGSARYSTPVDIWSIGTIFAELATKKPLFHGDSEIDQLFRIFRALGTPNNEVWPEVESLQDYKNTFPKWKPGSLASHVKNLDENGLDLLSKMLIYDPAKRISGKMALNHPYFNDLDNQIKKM
Lck (h), sequence (P06239 whole entry): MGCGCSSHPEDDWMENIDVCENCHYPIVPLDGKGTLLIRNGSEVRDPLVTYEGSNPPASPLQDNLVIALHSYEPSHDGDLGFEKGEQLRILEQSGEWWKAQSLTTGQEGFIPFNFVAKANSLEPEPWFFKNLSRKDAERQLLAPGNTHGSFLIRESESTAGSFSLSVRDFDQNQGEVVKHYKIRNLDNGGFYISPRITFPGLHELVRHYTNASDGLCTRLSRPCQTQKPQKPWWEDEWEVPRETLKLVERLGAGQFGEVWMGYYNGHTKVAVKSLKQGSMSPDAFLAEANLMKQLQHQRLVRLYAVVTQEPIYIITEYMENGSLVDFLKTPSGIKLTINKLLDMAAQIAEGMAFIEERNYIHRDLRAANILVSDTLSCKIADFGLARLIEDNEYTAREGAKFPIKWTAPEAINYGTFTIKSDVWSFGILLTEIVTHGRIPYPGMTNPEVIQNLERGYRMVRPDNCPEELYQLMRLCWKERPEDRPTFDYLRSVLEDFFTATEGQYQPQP
SAPK2 a (h), sequence (Q16539 whole entry): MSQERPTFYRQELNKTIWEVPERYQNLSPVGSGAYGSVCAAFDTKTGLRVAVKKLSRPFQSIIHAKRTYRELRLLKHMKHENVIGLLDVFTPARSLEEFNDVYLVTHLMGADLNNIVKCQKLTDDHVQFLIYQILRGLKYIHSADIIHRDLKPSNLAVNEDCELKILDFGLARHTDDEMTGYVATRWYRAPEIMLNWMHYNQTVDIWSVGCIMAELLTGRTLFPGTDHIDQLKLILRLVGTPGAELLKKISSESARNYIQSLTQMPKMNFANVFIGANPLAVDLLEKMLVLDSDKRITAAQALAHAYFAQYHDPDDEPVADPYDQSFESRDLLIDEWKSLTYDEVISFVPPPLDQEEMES
L1MK1 (h), sequence (P53667 285-638 limits assumed): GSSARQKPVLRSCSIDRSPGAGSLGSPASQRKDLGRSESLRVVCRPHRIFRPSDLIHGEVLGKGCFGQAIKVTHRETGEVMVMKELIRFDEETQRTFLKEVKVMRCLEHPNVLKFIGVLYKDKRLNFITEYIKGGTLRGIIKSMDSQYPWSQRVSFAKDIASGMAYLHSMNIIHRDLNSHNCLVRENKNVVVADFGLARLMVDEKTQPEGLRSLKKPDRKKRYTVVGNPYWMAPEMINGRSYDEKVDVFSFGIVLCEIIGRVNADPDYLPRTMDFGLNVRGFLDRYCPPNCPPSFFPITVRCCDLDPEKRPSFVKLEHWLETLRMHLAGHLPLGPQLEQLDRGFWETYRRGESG
JAK3 (h), sequence (P52333 781-1124 limits assumed): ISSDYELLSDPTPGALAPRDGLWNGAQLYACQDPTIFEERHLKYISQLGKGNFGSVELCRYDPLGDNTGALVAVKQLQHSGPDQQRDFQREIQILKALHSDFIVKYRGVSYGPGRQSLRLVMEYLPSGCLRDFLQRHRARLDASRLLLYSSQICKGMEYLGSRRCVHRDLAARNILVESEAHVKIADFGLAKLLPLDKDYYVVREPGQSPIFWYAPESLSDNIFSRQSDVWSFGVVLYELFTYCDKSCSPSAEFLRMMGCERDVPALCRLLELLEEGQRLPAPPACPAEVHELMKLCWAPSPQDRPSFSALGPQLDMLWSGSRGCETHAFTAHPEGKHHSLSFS
Rsk2 (h), sequence (P51812 whole entry): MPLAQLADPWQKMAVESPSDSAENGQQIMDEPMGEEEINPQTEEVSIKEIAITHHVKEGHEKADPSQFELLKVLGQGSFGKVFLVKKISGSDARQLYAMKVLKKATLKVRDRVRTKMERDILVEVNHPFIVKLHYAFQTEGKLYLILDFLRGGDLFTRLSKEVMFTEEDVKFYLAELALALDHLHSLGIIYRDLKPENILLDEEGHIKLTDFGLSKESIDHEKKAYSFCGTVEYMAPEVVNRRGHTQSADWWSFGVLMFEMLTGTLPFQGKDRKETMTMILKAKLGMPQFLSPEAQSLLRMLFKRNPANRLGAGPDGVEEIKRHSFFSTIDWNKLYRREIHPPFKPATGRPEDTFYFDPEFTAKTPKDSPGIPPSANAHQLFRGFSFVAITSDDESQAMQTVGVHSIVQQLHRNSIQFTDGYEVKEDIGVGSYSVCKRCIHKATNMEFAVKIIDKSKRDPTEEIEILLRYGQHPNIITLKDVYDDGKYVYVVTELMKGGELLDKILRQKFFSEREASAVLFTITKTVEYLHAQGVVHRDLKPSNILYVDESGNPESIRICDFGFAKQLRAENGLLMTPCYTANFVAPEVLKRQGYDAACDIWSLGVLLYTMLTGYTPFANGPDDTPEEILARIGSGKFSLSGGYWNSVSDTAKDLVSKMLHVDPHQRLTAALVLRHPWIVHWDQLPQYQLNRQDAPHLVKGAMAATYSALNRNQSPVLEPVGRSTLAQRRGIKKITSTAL
KDR (tl), sequence (P35968 790-1356 limits assumed): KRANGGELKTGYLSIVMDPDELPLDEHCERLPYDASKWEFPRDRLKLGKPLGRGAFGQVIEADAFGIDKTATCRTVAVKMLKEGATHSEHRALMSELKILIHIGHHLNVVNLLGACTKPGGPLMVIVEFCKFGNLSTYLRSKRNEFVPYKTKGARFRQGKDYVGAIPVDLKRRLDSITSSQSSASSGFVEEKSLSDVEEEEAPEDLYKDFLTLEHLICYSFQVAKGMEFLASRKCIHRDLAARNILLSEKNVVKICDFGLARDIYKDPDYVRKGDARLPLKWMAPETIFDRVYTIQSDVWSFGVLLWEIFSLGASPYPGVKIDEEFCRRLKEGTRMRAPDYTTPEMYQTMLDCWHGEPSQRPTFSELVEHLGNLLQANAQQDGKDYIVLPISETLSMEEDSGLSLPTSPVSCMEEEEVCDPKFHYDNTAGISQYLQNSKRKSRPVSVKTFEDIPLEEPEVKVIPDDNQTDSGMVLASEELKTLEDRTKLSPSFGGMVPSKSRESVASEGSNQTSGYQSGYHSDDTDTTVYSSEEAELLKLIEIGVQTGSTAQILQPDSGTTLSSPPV
CaMKI (h), sequence (Q14012 whole entry): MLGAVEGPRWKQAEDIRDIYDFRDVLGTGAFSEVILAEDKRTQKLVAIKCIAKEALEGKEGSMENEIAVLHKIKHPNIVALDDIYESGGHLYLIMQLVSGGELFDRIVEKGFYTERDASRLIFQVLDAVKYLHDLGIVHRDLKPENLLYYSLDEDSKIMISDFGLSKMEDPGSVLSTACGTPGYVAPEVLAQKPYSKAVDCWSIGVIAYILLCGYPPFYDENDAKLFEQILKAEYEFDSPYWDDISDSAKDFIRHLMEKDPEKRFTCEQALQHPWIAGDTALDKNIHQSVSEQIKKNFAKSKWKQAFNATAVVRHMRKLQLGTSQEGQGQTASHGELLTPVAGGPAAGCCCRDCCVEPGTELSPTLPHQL
AMPK (r), sequence (Q09137 whole entry): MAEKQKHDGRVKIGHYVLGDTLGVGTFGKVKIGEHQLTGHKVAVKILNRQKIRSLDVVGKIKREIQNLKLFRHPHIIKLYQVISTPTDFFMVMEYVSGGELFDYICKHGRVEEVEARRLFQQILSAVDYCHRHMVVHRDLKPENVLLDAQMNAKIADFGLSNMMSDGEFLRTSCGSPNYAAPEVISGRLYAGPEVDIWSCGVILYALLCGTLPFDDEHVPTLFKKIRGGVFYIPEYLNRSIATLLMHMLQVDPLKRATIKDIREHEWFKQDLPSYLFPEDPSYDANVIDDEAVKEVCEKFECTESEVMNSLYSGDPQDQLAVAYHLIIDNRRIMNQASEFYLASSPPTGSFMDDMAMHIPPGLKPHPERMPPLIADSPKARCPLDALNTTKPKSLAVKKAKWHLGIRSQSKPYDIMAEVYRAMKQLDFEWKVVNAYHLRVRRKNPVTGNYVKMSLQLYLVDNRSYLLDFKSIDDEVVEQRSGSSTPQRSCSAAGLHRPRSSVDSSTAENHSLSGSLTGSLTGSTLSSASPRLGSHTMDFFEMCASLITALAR
IGF-IR (h), sequence (P08069 959-1367 limits assumed): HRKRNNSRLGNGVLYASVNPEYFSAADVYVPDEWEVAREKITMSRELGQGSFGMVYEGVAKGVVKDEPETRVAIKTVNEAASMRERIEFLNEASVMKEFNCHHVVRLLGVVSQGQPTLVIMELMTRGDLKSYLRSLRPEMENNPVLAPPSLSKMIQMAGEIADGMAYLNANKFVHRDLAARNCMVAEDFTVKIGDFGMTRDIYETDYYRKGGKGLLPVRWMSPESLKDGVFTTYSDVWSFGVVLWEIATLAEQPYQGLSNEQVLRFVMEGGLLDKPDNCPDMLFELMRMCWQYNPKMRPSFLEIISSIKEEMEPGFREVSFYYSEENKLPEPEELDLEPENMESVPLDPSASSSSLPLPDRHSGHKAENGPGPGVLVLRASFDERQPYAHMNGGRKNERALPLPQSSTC

In the case of WLRRIKAWLRRIKALNRQLGVAA, the “Profile-1 @ = 30 µm (kinase profiler assay)” value (shortened to “Profile-1 @ = 30 µm”) (AMPK (r)) is reported as 36, the “Profile-1 @ = 30 µm” value (CaMKI (h)) is reported as 9 and the “Profile-1 @ = 30 µm” value (CDKI/cyclinB (h)) is reported as 17. The “Profile-1 @ = 30 µm” value (DYRK2 (h)) was 93, the “Profile-1 @ = 30 µm” value (EphA2 (h)) was 38 and the “Profile-1 @ = 30 µm” value (GSK3β (h)) was 129. For the same binder, the “Profile-1 @ = 30 µm” value (IGF-IR (h)) was 227, the “Profile-1 @ = 30 µm” value (JAK3 (h)) was 85 and the “Profile-1 @ = 30 µm” value (KDR (tl)) was 27. For the same binder, the “Profile-1 @ = 30 µm” value (Lck (h)) was 130, the “Profile-1 @ = 30 µm” value (L1MK1 (h)) was 89 and the “Profile-1 @ = 30 µm” value (MEKI (h)) was 14. The “Profile-1 @ = 30 µm” value (Met (h)) was 30, the “Profile-1 @ = 30 µm” value (MLCK (h)) was 4 and the “Profile-1 @ = 30 µm” value (Pim-1 (h)) was 5. The “Profile-1 @ = 30 µm” value (PKA (h)) was 80, the “Profile-1 @ = 30 µm” value (Ret (h)) was 117 and the “Profile-1 @ = 30 µm” value (Rsk2 (h)) was 14. The “Profile-1 @ = 30 µm” value (SAPK2 a (h)) was 61, the “Profile-1 @ = 30 µm” value (Syk (h)) was 19 and the “Profile-1 @ = 30 µm” value (Tie2 (h)) was 17.
